Source: PMC10511116

Biological target: ErbB2 (HER2), recombinant (human) (UniProt P04626)
Test: ELONA
Conditions: every T is Nap-dU (5-[N-(1-naphthylmethyl)carboxamide]-2'-deoxyuridine, printed P); ELONA: ErbB2-coated plate, biotin-aptamer 1 h at room temp, wash 10 mM PBS, 0.05% Tween-20, pH 7.4 (binding buffer not stated); cells: DPBS, 4.5 g/L glucose …

Sequence “ATGTTAGAGTTTGCCTGAGTGCCTCGCAAGGGCGTAACAA [ErbB2 aptamer]” has a Kd of 1.37 nM.
